Measurements from the supplement of paper PMC10219994.
± gives the standard deviation of the averaged measurements.

B1: library; a variant is named by its letters at N, in order (parent)
chain: GAGACCGCAACTGAAAAGTTGTGGNNNNNATAGTGAGTCGCTGCCTGCAAAGACACAACT

Variants of: B1
Test: ligation selection enrichment (abundance after / before one-round selection) (fold); higher = more template-directed ligation activity
Details: with T7Psub CACGGAUGCUAAUACGACUCACUAUA; MgCl2 25 mM; 42 °C; 4 h; pH 8.5
Summary of the method: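 Two independent reactions combined a T7-transcribed RNA ligase library with five randomized core positions (0.75 μM) and RNA substrate (6 μM) in 50 mM EPPS pH 8.5, 25 mM MgCl2, run for 4 h at 42 °C. The ligated products were sequenced on a MiSeq, and only reads with quality ≥30 at all randomized positions were counted. Enrichment is the abundance after ligation divided by the abundance before ligation.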

Row | Variant | ligation selection enrichment
1 | GAGACCGCAACTGAAAAGTTGTGGTCAGAATAGTGAGTCGCTGCCTGCAAAGACACAACT [TCAGA] | 0.474 ± 0.043
2 | GAGACCGCAACTGAAAAGTTGTGGGCATTATAGTGAGTCGCTGCCTGCAAAGACACAACT [GCATT] | 0.257 ± 0.043
3 | GAGACCGCAACTGAAAAGTTGTGGGCATGATAGTGAGTCGCTGCCTGCAAAGACACAACT [GCATG] | 0.335 ± 0.012
4 | GAGACCGCAACTGAAAAGTTGTGGGCATAATAGTGAGTCGCTGCCTGCAAAGACACAACT [GCATA] | 0.204 ± 0.0065
5 | GAGACCGCAACTGAAAAGTTGTGGGCATCATAGTGAGTCGCTGCCTGCAAAGACACAACT [GCATC] | 0.168 ± 0.016
6 | GAGACCGCAACTGAAAAGTTGTGGCCCAAATAGTGAGTCGCTGCCTGCAAAGACACAACT [CCCAA] | 0.134 ± 0.007
7 | GAGACCGCAACTGAAAAGTTGTGGCCCACATAGTGAGTCGCTGCCTGCAAAGACACAACT [CCCAC] | 0.168 ± 0.017
8 | GAGACCGCAACTGAAAAGTTGTGGCCCAGATAGTGAGTCGCTGCCTGCAAAGACACAACT [CCCAG] | 0.145 ± 0.0045
9 | GAGACCGCAACTGAAAAGTTGTGGCCCATATAGTGAGTCGCTGCCTGCAAAGACACAACT [CCCAT] | 0.674 ± 0.13
10 | GAGACCGCAACTGAAAAGTTGTGGGCAGGATAGTGAGTCGCTGCCTGCAAAGACACAACT [GCAGG] | 0.189 ± 0.024
11 | GAGACCGCAACTGAAAAGTTGTGGGCAGAATAGTGAGTCGCTGCCTGCAAAGACACAACT [GCAGA] | 0.363 ± 0.026
12 | GAGACCGCAACTGAAAAGTTGTGGGCAGTATAGTGAGTCGCTGCCTGCAAAGACACAACT [GCAGT] | 0.0918 ± 0.00069
13 | GAGACCGCAACTGAAAAGTTGTGGGCAGCATAGTGAGTCGCTGCCTGCAAAGACACAACT [GCAGC] | 0.14 ± 0.021
14 | GAGACCGCAACTGAAAAGTTGTGGTCATTATAGTGAGTCGCTGCCTGCAAAGACACAACT [TCATT] | 0.327 ± 0.04
15 | GAGACCGCAACTGAAAAGTTGTGGTCATGATAGTGAGTCGCTGCCTGCAAAGACACAACT [TCATG] | 0.1699 ± 0.0013
16 | GAGACCGCAACTGAAAAGTTGTGGTCATAATAGTGAGTCGCTGCCTGCAAAGACACAACT [TCATA] | 0.274 ± 0.026
17 | GAGACCGCAACTGAAAAGTTGTGGTCATCATAGTGAGTCGCTGCCTGCAAAGACACAACT [TCATC] | 0.166 ± 0.002
18 | GAGACCGCAACTGAAAAGTTGTGGTCCCAATAGTGAGTCGCTGCCTGCAAAGACACAACT [TCCCA] | 0.209 ± 0.054
19 | GAGACCGCAACTGAAAAGTTGTGGTCCCCATAGTGAGTCGCTGCCTGCAAAGACACAACT [TCCCC] | 0.279 ± 0.026
20 | GAGACCGCAACTGAAAAGTTGTGGACCATATAGTGAGTCGCTGCCTGCAAAGACACAACT [ACCAT] | 0.866 ± 0.31
21 | GAGACCGCAACTGAAAAGTTGTGGACCAAATAGTGAGTCGCTGCCTGCAAAGACACAACT [ACCAA] | 0.144 ± 0.0063
22 | GAGACCGCAACTGAAAAGTTGTGGACCACATAGTGAGTCGCTGCCTGCAAAGACACAACT [ACCAC] | 0.165 ± 0.0072
23 | GAGACCGCAACTGAAAAGTTGTGGACCAGATAGTGAGTCGCTGCCTGCAAAGACACAACT [ACCAG] | 0.207 ± 0.033

Row | Variant | ligation selection enrichment
24 | GAGACCGCAACTGAAAAGTTGTGGCCACTATAGTGAGTCGCTGCCTGCAAAGACACAACT [CCACT] | 0.416 ± 0.15
25 | GAGACCGCAACTGAAAAGTTGTGGCCACAATAGTGAGTCGCTGCCTGCAAAGACACAACT [CCACA] | 0.0899 ± 0.017
26 | GAGACCGCAACTGAAAAGTTGTGGCCACGATAGTGAGTCGCTGCCTGCAAAGACACAACT [CCACG] | 0.415 ± 0.075
27 | GAGACCGCAACTGAAAAGTTGTGGCCACCATAGTGAGTCGCTGCCTGCAAAGACACAACT [CCACC] | 0.0951 ± 0.0078
28 | GAGACCGCAACTGAAAAGTTGTGGACATGATAGTGAGTCGCTGCCTGCAAAGACACAACT [ACATG] | 0.333 ± 0.015
29 | GAGACCGCAACTGAAAAGTTGTGGACATCATAGTGAGTCGCTGCCTGCAAAGACACAACT [ACATC] | 0.138 ± 0.056
30 | GAGACCGCAACTGAAAAGTTGTGGACATTATAGTGAGTCGCTGCCTGCAAAGACACAACT [ACATT] | 0.209 ± 0.099
31 | GAGACCGCAACTGAAAAGTTGTGGACATAATAGTGAGTCGCTGCCTGCAAAGACACAACT [ACATA] | 0.136 ± 0.019
32 | GAGACCGCAACTGAAAAGTTGTGGACCCCATAGTGAGTCGCTGCCTGCAAAGACACAACT [ACCCC] | 0.194 ± 0.0053
33 | GAGACCGCAACTGAAAAGTTGTGGACCCGATAGTGAGTCGCTGCCTGCAAAGACACAACT [ACCCG] | 0.752 ± 0.054
34 | GAGACCGCAACTGAAAAGTTGTGGACCCAATAGTGAGTCGCTGCCTGCAAAGACACAACT [ACCCA] | 0.152 ± 0.013
35 | GAGACCGCAACTGAAAAGTTGTGGTCAATATAGTGAGTCGCTGCCTGCAAAGACACAACT [TCAAT] | 6.44 ± 2.6
36 | GAGACCGCAACTGAAAAGTTGTGGTCAAGATAGTGAGTCGCTGCCTGCAAAGACACAACT [TCAAG] | 0.718 ± 0.12
37 | GAGACCGCAACTGAAAAGTTGTGGTCAACATAGTGAGTCGCTGCCTGCAAAGACACAACT [TCAAC] | 0.48 ± 0.05
38 | GAGACCGCAACTGAAAAGTTGTGGCCAAAATAGTGAGTCGCTGCCTGCAAAGACACAACT [CCAAA] | 0.162 ± 0.034
39 | GAGACCGCAACTGAAAAGTTGTGGCCAACATAGTGAGTCGCTGCCTGCAAAGACACAACT [CCAAC] | 0.217 ± 0.026
40 | GAGACCGCAACTGAAAAGTTGTGGCCAAGATAGTGAGTCGCTGCCTGCAAAGACACAACT [CCAAG] | 0.349 ± 0.024
41 | GAGACCGCAACTGAAAAGTTGTGGCCAATATAGTGAGTCGCTGCCTGCAAAGACACAACT [CCAAT] | 3.42 ± 0.96
42 | GAGACCGCAACTGAAAAGTTGTGGACAATATAGTGAGTCGCTGCCTGCAAAGACACAACT [ACAAT] | 3.6 ± 0.37
43 | GAGACCGCAACTGAAAAGTTGTGGACAACATAGTGAGTCGCTGCCTGCAAAGACACAACT [ACAAC] | 0.224 ± 0.024
44 | GAGACCGCAACTGAAAAGTTGTGGACAAGATAGTGAGTCGCTGCCTGCAAAGACACAACT [ACAAG] | 0.442 ± 0.0085
45 | GAGACCGCAACTGAAAAGTTGTGGACAAAATAGTGAGTCGCTGCCTGCAAAGACACAACT [ACAAA] | 0.227 ± 0.0041
